Laboratory results reported in PMC4686794, “Obesity-related known and candidate SNP markers can significantly change affinity of TATA-binding protein for human gene promoters”.

Columns and labels:
Conditions in all cases: protein: recombinant; label: 32P on both strands; blunt
[1] = biological target: T1, TATA-binding protein (TBP) (Homo sapiens, UniProt P20226 1-339); assay: EMSA (kinetic, kd/ka); 5 mM Mg2+; ka 30e3 M-1s-1, kd 6e-4 s-1; 20 mM HEPES-KOH pH 7.6, 5 mM MgCl2, 70 mM KCl, 1 mM DTT, 100 ug/mL BSA, 0.01% NP-40, 5% glycerol, 25 C; 0.3 nM active TBP, ODN 10-60 nM
T1 sequence (P20226 whole entry): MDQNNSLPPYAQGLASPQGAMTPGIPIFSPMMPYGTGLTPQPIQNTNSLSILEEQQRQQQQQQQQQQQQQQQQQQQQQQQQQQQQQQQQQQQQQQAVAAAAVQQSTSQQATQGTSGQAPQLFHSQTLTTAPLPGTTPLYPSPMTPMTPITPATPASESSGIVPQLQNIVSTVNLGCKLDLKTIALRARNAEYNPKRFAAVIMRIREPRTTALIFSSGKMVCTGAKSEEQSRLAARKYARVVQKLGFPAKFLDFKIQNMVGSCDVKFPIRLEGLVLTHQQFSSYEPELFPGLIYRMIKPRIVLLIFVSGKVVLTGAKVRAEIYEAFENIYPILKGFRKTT

[2] = biological target: T1, TATA-binding protein (TBP); assay: EMSA (kinetic, kd/ka); 5 mM Mg2+; ka 2.3e3 M-1s-1, kd 1.8e-4 s-1; 20 mM HEPES-KOH pH 7.6, 5 mM MgCl2, 70 mM KCl, 1 mM DTT, 100 ug/mL BSA, 0.01% NP-40, 5% glycerol, 25 C; 0.3 nM active TBP, ODN 10-60 nM
[3] = biological target: T1, TATA-binding protein (TBP); assay: EMSA (kinetic, kd/ka); 5 mM Mg2+; ka 3.5e3 M-1s-1, kd 1.5e-4 s-1; 20 mM HEPES-KOH pH 7.6, 5 mM MgCl2, 70 mM KCl, 1 mM DTT, 100 ug/mL BSA, 0.01% NP-40, 5% glycerol, 25 C; 0.3 nM active TBP, ODN 10-60 nM
[4] = biological target: T1, TATA-binding protein (TBP); assay: EMSA (kinetic, kd/ka); 5 mM Mg2+; ka 5.6e3 M-1s-1, kd 13.0e-4 s-1; 20 mM HEPES-KOH pH 7.6, 5 mM MgCl2, 70 mM KCl, 1 mM DTT, 100 ug/mL BSA, 0.01% NP-40, 5% glycerol, 25 C; 0.3 nM active TBP, ODN 10-60 nM
[5] = biological target: T1, TATA-binding protein (TBP); assay: EMSA (kinetic, kd/ka); 5 mM Mg2+; ka 70e3 M-1s-1, kd 5e-4 s-1; 20 mM HEPES-KOH pH 7.6, 5 mM MgCl2, 70 mM KCl, 1 mM DTT, 100 ug/mL BSA, 0.01% NP-40, 5% glycerol, 25 C; 0.3 nM active TBP, ODN 10-60 nM

B1: GCG -41g (rs183433761 minor) (dsDNA)
DNA 1: AGCTGGAGAGTGTATAAAAGCAGTGC
DNA 2: GCACTGCTTTTATACACTCTCCAGCT
Binder B1 has a Kd [1] of 18 nM.

B2: LEP WT (dsDNA)
DNA 1: ATCGGGCCGCTATAAGAGGGGCGGGC
DNA 2: GCCCGCCCCTCTTATAGCGGCCCGAT
With B2 the Kd [2] was 78 nM.

B3: LEP -38a (rs200487063 minor) (dsDNA)
DNA 1: ATCGGGCCACTATAAGAGGGGCGGGC
DNA 2: GCCCGCCCCTCTTATAGTGGCCCGAT
Work on B3 yielded a Kd [3] of 43 nM.

B4: LEP -35g (rs201381696 minor) (dsDNA)
DNA 1: ATCGGGCCGCTGTAAGAGGGGCGGGC
DNA 2: GCCCGCCCCTCTTACAGCGGCCCGAT
Work on B4 yielded a Kd [4] of 232 nM.

B5: GCG WT (dsDNA)
DNA 1: AGCTGGAGAGTATATAAAAGCAGTGC
DNA 2: GCACTGCTTTTATATACTCTCCAGCT
B5 gave a Kd [5] of 8 nM.
